Tested on: rat model of pulmonary hypertension induced by monocrotaline
Experiment: rat model of pulmonary hypertension induced by monocrotaline
Assay type: in vivo, rat (Sprague Dawley)
Experimental: To further evaluate the effect of anti-Activin A antibodies in pulmonary arterial hypertension, a rat model of pulmonary hypertension induced by monocrotaline was used.
Six to seven week old Sprague Dawley rats were used. Rats were separated into treatment groups such that body weights were similar among different groups. Rats were subcutaneously administered either 40 mg/kg of monocrotaline or 5 mL/kg of saline at day 0. At 14 days post injection, saline-injected rats were orally dosed with PEG 400 (at 50:50 v/v, Affymetrix Inc., #19957) at 5 mL/kg daily for two weeks, and monocrotaline-injected rats were separated into 5 groups with a group (n=9) orally dosed with PEG 400 at 5 mL/kg daily for two weeks, another group (n=12) orally administered macintentan at 30 mg/kg daily for two weeks, and three groups that were both orally dosed with PEG 400 at 5 mL/kg daily for two weeks and subcutaneously treated with either anti-Activin A antibodies, H4H10430P (n=9), H4H10446P2 (n=11), or an isotype control antibody (n=10) at 40 mg/kg twice a week for two weeks.
At day 27, pulmonary artery size and right ventricular function and dimensions of the rats were assessed using a high frequency ultrasound system (Vevo 2100, VisualSonics). For the assessment, rats were anesthetized (with 1.5% isoflurane at a rate of 1.0 cc/mL of medical grade air) and their temperature was monitored with a rectal temperature probe and held at approximately 37° C. with a heated platform (Vevo 2100, Visualsonics) and a warming lamp. Both brightness-mode (B-mode) and motion-mode (M-mode) imaging were used. B-mode imaging of the rat heart in cross-section was used to determine pulmonary artery cross-sectional area (PA CSA) at the level of the pulmonary valve. […] was used to determine the pulsed wave velocity time integral (VTI), which is derived from the area under the curve of representative Doppler tracings of blood flow through the pulmonary artery. Right ventricular stroke volume (RV SV) was calculated from the product of PA CSA and VTI. Right ventricular cardiac output (RV CO) was calculated from the product of SV and heart rate (HR). M-mode imaging was used to determine right ventricular free wall (RVFW) thickness during diastole and systole. […]
Right ventricular pressure was subsequently assessed for all treatment groups. […] The catheter was connected to pressure/volume instrument (MPVS-300, Millar Instruments, Inc.) that measured heart rate as well as both diastolic and systolic right ventricular pressures. […] Readings were quantified from a 60 second interval of the pressure tracing (following a 2 minute period of recording to allow for pressure stabilization). The parameters analyzed were RV diastolic and systolic pressures, heart rate and ventricular contractile function. […]

[1] = monocrotaline 40 mg/kg SC day 0, antibodies 40 mg/kg SC 2x/wk, macitentan 30 mg/kg PO daily from day 14 for two weeks, ultrasound day 27

B1: H4H10430P: fully human anti-Activin A antibody, human IgG4 Fc; HCVR/LCVR SEQ ID NOs 66/74 (antibody, V domains shown)
VH: EVQLVESGGGLVQPGRSLRLSCKASGFAFDDFAMHWVRQAPGKGLEWVSGIVWNSGDIGYADSVKGRFTISRDNAKNSLYLQLNSLRTEDTALYFCVKDMVRGLMGFNYYGMDVWGQGTTVTVSS
VL: EIVLTQSPATLSLSPGERATLSCRASQTISTYLVWYRQRPGQAPSLLIYDASNRATDIPARFSGSGSGTDFTLTISSLEPEDFAVYYCQQRSNWPITFGQGTRLEIK
[1]
  PA CSA (Ave ± SEM): 9.439 ± 0.516%% mm^2
  Right Ventricular cardiac output (Ave ± SEM): 130.0 ± 12.5 mL/min
  Stroke Volume (Ave ± SEM), right ventricular: 362.8 ± 32.6 µL
monocrotaline-injected rats, FIG. 3A
  effect on PA CSA (in words): restored PA CSA to values measured for saline-injected PEG 400 dosed rats
